Assay [1] addresses T1, rHuman CD44/Fc Chimera, CF (R&D Systems Cat#3660-CD) (human, UniProt P16070 21-220).
T1 construct: Bought recombinant Fc chimera; not shown: Fc of the bought R&D Systems chimera
The assay can be described thus: ECL Multispot (MSD), antigen spotted on plate, Fab 0.1 uM.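 Note: ratio compares each antigen's electrochemiluminescence to the blank within the same well, with a ratio of at least 4 counted as a binding Fab hit.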

Assay [2] has as its target T2, rHuman IGF-1 sR, CF (R&D Systems Cat#391-GR) (human, UniProt P08069 31-932).
T2 construct: Bought recombinant soluble receptor; also called insulin-like growth factor-1 soluble receptor
The assay is described as above.

Assay [3] concerns the target T3, rHuman Notch-1/Fc Chimera, CF (R&D Systems Cat#3647-TK) (human, UniProt P46531 19-526).
T3 construct: Bought recombinant Fc chimera; not shown: Fc of the bought R&D Systems chimera
Described as above.

Assay [4] has as its target T4, rHuman ErbB2/Fc Chimera, CF (R&D Systems Cat#1129-ER) (human, UniProt P04626 23-652).
T4 construct: Bought recombinant Fc chimera; not shown: Fc of the bought R&D Systems chimera
The description is as above.

The target of assay [5] is T5, rHuman Erythropoietin R/Fc Chimera, CF (R&D Systems Cat#963-ER) (human, UniProt P19235 25-250).
T5 construct: Bought recombinant Fc chimera; also called EPO R; EPO R/Fc; not shown: Fc of the bought R&D Systems chimera
T5 sequence (looked up): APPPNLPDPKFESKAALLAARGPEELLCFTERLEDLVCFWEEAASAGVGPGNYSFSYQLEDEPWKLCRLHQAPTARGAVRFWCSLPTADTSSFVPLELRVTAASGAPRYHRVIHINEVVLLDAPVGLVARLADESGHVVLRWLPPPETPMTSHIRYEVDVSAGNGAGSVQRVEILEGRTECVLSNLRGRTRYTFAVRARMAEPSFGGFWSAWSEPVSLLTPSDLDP
The description is as above.

Assay [6] addresses T6, rHuman P-Cadherin/Fc Chimera, CF (R&D Systems Cat#861-PC) (human, UniProt P22223 108-654).
T6 construct: Bought recombinant Fc chimera; not shown: Fc of the bought R&D Systems chimera
Described as above.

Assay [7] deals with T7, rHuman EGF R/Fc Chimera, CF (R&D Systems Cat#344-ER) (human, UniProt P00533 25-645).
T7 construct: Bought recombinant Fc chimera; not shown: Fc of the bought R&D Systems chimera
Described as above.

The target in assay [8] is T8, Recombinant Human DLL4 (R&D Systems Cat#1506-D4/CF) (human, UniProt Q9NR61 27-524).
T8 construct: Bought recombinant protein; also called delta-like protein 4; rHuman DLL4
Described as above.

Assay [9] has as its target T9, rHuman HGF R/c-MET/Fc Chimera, CF (R&D Systems Cat#358-MT/CF) (human, UniProt P08581 25-932).
T9 construct: Bought recombinant Fc chimera; also called HGF R/Fc; not shown: Fc of the bought R&D Systems chimera
The description is as above.

For assay [10], the target named is T1, rHuman CD44/Fc Chimera, CF (R&D Systems …). The assay is described as follows: ECL Multispot (MSD), antigen spotted on plate, Fab 0.01 uM.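 Note: electrochemiluminescence of each antigen spot divided by the blank of the same well, with a value of 4 or above scoring the Fab as a binding hit.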
The target in assay [11] is T2, rHuman IGF-1 sR, CF (R&D Systems …). Described as above.
In assay [12] the target is T3, rHuman Notch-1/Fc Chimera, CF (R&D …). The description is as above.
For assay [13], the target named is T4, rHuman ErbB2/Fc Chimera, CF (R&D …). The assay is described as above.
For assay [14], the target named is T5, rHuman Erythropoietin R/Fc Chimera, CF …. The description is as above.
Assay [15] has as its target T6, rHuman P-Cadherin/Fc Chimera, CF (R&D …). Described as above.
Assay [16] addresses T7, rHuman EGF R/Fc Chimera, CF (R&D …). Described as above.
In assay [17] the target is T8, Recombinant Human DLL4 (R&D Systems …). The description is as above.
In assay [18] the target is T9, rHuman HGF R/c-MET/Fc Chimera, CF (R&D …). Described as above.
Assay [19] concerns the target T10, rHuman IGF-1 sR, CF (R&D Systems Cat#391-GR) (human, UniProt P08069 31-932).
T10 construct: Bought soluble receptor; the column head 'IGF-1' means IGF-1 sR; also called insulin-like growth factor-1 soluble receptor
The assay is described as follows: ECL Multispot (MSD) assay; antigen spotted on plate, Fab in solution.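 Note: fab bound 1 h at 20 °C, detected by TAG-labelled antibody electrochemiluminescence, signal relative to each well's blank, ratio of 4 or more marks a hit.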

Assay [20] addresses T11, rHuman HGF R/c-MET/Fc Chimera, CF (R&D Systems Cat#358-MT/CF) (human, UniProt P08581 25-932).
T11 construct: Bought reagent; also called HGF R/Fc; hepatocyte growth factor receptor
The description is as above.

The target in assay [21] is T12, rHuman ErbB2/Fc Chimera, CF (R&D Systems Cat#1129-ER) (human, UniProt P04626 23-652).
T12 construct: Bought reagent; also called human epidermal growth factor 2 receptor
The assay is described as above.

Assay [22] has as its target T13, rHuman P-Cadherin/Fc Chimera, CF (R&D Systems Cat#861-PC) (human, UniProt P22223 108-654).
T13 construct: Bought reagent
The assay is described as above.

In assay [23] the target is T14, rHuman Erythropoietin R/Fc Chimera, CF (R&D Systems Cat#963-ER) (human, UniProt P19235 25-250).
T14 construct: Bought reagent; also called EPO R; Epo R/Fc
T14 sequence (looked up): T5 sequence (looked up)
The assay is described as above.

The target of assay [24] is T15, rHuman EGF R/Fc Chimera, CF (R&D Systems Cat#344-ER) (human, UniProt P00533 25-645).
T15 construct: Bought reagent; also called epidermal growth factor receptor
Described as above.

The target in assay [25] is T16, rHuman CD44/Fc Chimera, CF (R&D Systems Cat#3660-CD) (human, UniProt P16070 21-220).
T16 construct: Bought reagent
Described as above.

Assay [26] has as its target T17, rHuman Notch-1/Fc Chimera, CF (R&D Systems Cat#3647-TK) (human, UniProt P46531 19-526).
T17 construct: Bought reagent
Described as above.

Assay [27] has as its target T18, Recombinant Human DLL4 (delta-like protein 4) (human, UniProt Q9NR61 27-524).
T18 construct: also called rHuman DLL4; Delta-like 4
The assay can be described thus: ELISA, DLL4 coated on the plate, Fab at 100 nM, absorbance at 450 nm.

The target of assay [28] is T18, Recombinant Human DLL4 (delta-like …). The assay can be described thus: 96-well plate ECL (MSD) assay, DLL4 immobilised, Fab at 10 nM.

Numbering of substitutions follows the chain as printed. Names and notes keep the numbering of the source.

Results on six molecules are retold here after patent publication US20120316071A1 (published 2012).

B1: Fab VH1-46_IGHD6-6*01_IGHJ1*01 S103A & L6_IGKJ1*01 (Fab, V domains shown)
VH: QVQLVQSGAEVKKPGASVKVSCKASGYTFTSYYMHWVRQAPGQGLEWMGIINPSGGSTSYAQKFQGRVTMTRDTSTSTVYMELSSLRSEDTAVYYCAREEYSASSAEYFQHWGQGTLVTVSS
VL: not shown
notes: Fab made in E. coli; The heavy chain variable region was cloned into Plasmid A (CH1, His6 and Flag tags) and the kappa light chain variable region into Plasmid C (kappa CL)
As for B1, the ECL signal/noise ratio was 1.4 in assay [1]; 1.2 in [2]; 1.2 in assay [3]; 1 in assay [4]; 1.4 in assay [5]; 1.4 in [6]. Moreover, the ECL signal/noise ratio was 1.2 in assay [7]; 31.6 in [8]; 1 in [9]; 1.3 in assay [10]; 1.1 in assay [11]; 1.4 in assay [12]. Also, the ECL signal/noise ratio in assay [13] was determined as 0.9; in assay [14], 1.1; in assay [15] it was 1.3; in assay [16], 1.3; in [17] it was 4.5; in assay [18], 1.2.

B2: Fab VH1-46_IGHD6-6*01_IGHJ1*01 S102A/S103P/S104F (APF) & L6_IGKJ1*01 Y32V (Fab, V domains shown)
VH: B1 VH with S102A, A103P, S104F
VL: EIVLTQSPATLSLSPGERATLSCRASQSVSSVLAWYQQKPGQAPRLLIYDASNRATGIPARFSGSGSGTDFTLTISSLEPEDFAVYYCQQRSNWPPWTFGQGTKVEIKR
notes: Fab format as for the parent (CH1 with His6/Flag tags, kappa CL); also called APF / Y32V
Regarding B2, the ECL signal in [19] turned out to be 151; in assay [20], 283; in assay [21], 156; in assay [22] it was 186; in [23], 144; in assay [24], 57. The ECL signal in assay [25] amounted to 120; in assay [26] it was 56.

B3: Fab VH1-46_IGHD6-6*01_IGHJ1*01 S102A/S103P/S104F (APF) & L6_IGKJ1*01 R24G/Q27L (Fab, V domains shown)
VH: B1 VH with S102A, A103P, S104F
VL: B2 VL with R24G, Q27L, V32Y
notes: Double mutant that arose inadvertently in the PCR; Fab format as for the parent (CH1 with His6/Flag tags, kappa CL); also called APF / R24G/Q27L
Turning to B3, the ECL signal in assay [19] is 49; in assay [20], 185; in [21] it was 225; in assay [22], 236; in [23], 191; in assay [24], 252. Moreover, the ECL signal came out at 119 in assay [25] and 177 in assay [26].

B4: Fab VH1-46_IGHD6-6*01_IGHJ1*01 S102A/S103P/S104F/H111F & L6_IGKJ1*01 S28N/S30D/S31H (Fab, V domains shown)
VH: B1 VH with S102A, A103P, S104F, H111F
VL: B2 VL with S28N, S30D, S31H, V32Y
notes: Tested as a Fab expressed in E. coli; also called H:APFF & L:NDH; APFF-NDH
With B4, in [27], the “ELISA Signal [100 nM Fab]” value is 0.08. Further, the “ECL Signal [10 nM Fab]” value in assay [28] was 49000.

B5: Fab VH1-46_IGHD6-6*01_IGHJ1*01 S104H & L6_IGKJ1*01 (Fab, V domains shown)
VH: B1 VH with A103S, S104H
VL: not shown
notes: as for B1
In the case of B5, the ECL signal/noise ratio was 1.1 in assay [1]; 1 in assay [2]; 0.8 in [3]; 1 in [4]; 1 in [5]; 0.8 in assay [6]. Besides, the ECL signal/noise ratio in assay [7] amounted to 0.6; in assay [8], 88.3; in assay [9] it was 0.8; in [10], 1.4; in assay [11], 1.5; in assay [12], 1.4. In addition, the ECL signal/noise ratio was 1 in assay [13]; 1.2 in assay [14]; 1 in [15]; 1 in assay [16]; 27 in assay [17]; 1 in [18].

B6: Fab VH1-46_IGHD6-6*01_IGHJ1*01 S103P & L6_IGKJ1*01 (Fab, V domains shown)
VH: B1 VH with A103P
VL: not shown
notes: as for B1
In the case of B6, the ECL signal/noise ratio in [1] stood at 2.1; in assay [2], 2; in [3] it was 2.6; in assay [4] it was 2.2; in assay [5], 2.4; in [6] it was 1.4. The ECL signal/noise ratio in [7] was 2.3; in [8], 139; in [9], 1.9; in assay [10], 1.5; in [11], 1; in assay [12], 1.8. Also, the ECL signal/noise ratio in assay [13] was determined as 2; in assay [14] it was 1.8; in assay [15], 1.1; in assay [16], 1.8; in assay [17], 22.9; in [18], 1.2.
